For one molecule, EC50 results are on record in patent publication US20210214417A1 (KAHR MEDICAL, published 2021).

For this experiment, the target named is T1, recombinant human His-tagged CD47 protein (ACRO Biosystem, cat # CD7-H5227) (human, UniProt Q08722 19-139).
T1 construct: also called Recombinant human CD47; not shown: His tag
The experiment in a line: competition ELISA: recombinant human CD47 on the plate, fusion protein added first, then biotinylated SIRPα as the blocked ligand, streptavidin-HRP and TMB, 450 nm; EC50 calculated over 0 to 0.7 ug/ml. The procedure:
SIRPα-4-1BBL fusion protein, or a positive control anti CD47 antibody were added to the plate. Following wash biotinylated recombinant human SIRPα was added followed by streptavidin HRP and TMB substrate. Interaction of SIRPα with CD47 was measured by absorbance at 450 nm.
Methods—ELISA plates were coated overnight with recombinant human CD47. The plates were washed and incubated for 1 hour with different concentrations of the produced SIRPα-4-BBL fusion proteins or a positive control anti CD47 antibody. Following, a biotinylated SIRPα was added; and following 1 hour incubation the plates were washed and blotted with Streptavidin-HRP and TMB substrate according to a standard ELISA protocol (FIG. 13A). Plates were analyzed using a Plate reader (Thermo Scientific, Multiscan FC) at 450 nm, with reference at 620 nm.

T1 sequence (Q08722 19-139 limits assumed): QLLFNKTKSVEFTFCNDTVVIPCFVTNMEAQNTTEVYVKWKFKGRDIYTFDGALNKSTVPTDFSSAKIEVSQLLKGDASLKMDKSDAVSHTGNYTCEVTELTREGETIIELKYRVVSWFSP

B1: C-terminal his-tagged DSP107_V3.1 (SEQ ID NO: 17) (other)
chain: EEELQVIQPDKSVLVAAGETATLRCTATSLIPVGPIQWFRGAGPGRELIYNQKEGHFPRVTTVSDLTKRNNMDFSIRIGNITPADAGTYYCVKFRKGSPDDVEFKSGAGTELSVRAGSGARASPGSAASPRLREGPELSPDDPAGLLDLRQGMFAQLVAQNVLLIDGPLSWYSDPGLAGVSLTGGLSYKEDTKELVVAKAGVYYVFFQLELRRVVAGEGSGSVSLALHLQPLRSAAGAAALALTVDLPPASSEARNSAFGFQGRLLHLSAGQRLGVHLHTEARARHAWQLTQGATVLGLFRVTPEIPAGLPSPRSEHHHHHH
notes: also called (CH)-V3.1; DSP107_var3.1 with C-terminal His tag
For the molecule B1, the 50% effective concentration (EC50) is 0.103 µg/mL.

Broadly, the EC50 is the midpoint of the concentration-response curve.
